From patent publication US20220259288A1 (LA JOLLA INSTITUTE FOR ALLERGY AND IMMUNOLOGY, published 2022)

T1: HLA-DP DPB1*02:01 (human)
T1 chain 1: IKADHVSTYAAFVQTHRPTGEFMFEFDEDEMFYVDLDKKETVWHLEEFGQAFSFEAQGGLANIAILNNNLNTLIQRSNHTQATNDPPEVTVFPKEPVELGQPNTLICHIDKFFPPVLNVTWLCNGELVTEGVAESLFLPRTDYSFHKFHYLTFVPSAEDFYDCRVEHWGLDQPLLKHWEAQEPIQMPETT
T1 chain 2: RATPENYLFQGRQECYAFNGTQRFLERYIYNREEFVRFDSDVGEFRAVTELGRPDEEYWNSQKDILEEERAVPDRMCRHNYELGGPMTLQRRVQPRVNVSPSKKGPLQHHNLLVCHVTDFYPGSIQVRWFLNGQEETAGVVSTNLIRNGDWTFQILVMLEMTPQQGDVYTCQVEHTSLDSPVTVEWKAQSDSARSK

T2: HLA-DP DPB1*04:01 (human)
T2 chain 1: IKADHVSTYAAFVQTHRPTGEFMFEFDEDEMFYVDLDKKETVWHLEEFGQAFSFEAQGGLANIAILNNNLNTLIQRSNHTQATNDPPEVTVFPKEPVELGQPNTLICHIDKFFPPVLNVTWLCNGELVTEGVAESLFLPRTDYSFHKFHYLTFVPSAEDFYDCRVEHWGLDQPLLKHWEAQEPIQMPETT
T2 chain 2: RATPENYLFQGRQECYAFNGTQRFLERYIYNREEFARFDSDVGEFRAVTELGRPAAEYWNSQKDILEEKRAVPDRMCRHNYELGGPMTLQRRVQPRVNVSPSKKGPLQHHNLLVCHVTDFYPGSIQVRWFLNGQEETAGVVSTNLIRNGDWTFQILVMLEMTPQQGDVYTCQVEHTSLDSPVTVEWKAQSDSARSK


Columns and labels:
[1] = target: T1, HLA-DP DPB1*02:01; assay: competition assay
[2] = target: T2, HLA-DP DPB1*04:01; assay: competition assay
[3] = target: T3, HLA-DP DPB1*05:01 (human); assay: competition assay
T3 construct: its preparation is not described

[4] = target: T4, HLA-DP DPB1*14:01 (human); assay: competition assay
T4 construct: its preparation is not described

[5] = target: T5, HLA-DQ DQB1*06:02 (human); assay: competition assay
T5 construct: its preparation is not described

[6] = target: T6, HLA-DRB1*13:02 (human); assay: HLA class II competition binding assay
T6 construct: MHC class II molecule; how it was prepared for the assay is not described

[7] = target: T7, HLA-DRB1*01:01 (human); assay: HLA class II competition binding assay
T7 construct: MHC class II molecule; how it was prepared for the assay is not described

[8] = target: T8, HLA-DRB1*03:01 (human); assay: HLA class II competition binding assay
T8 construct: MHC class II molecule; how it was prepared for the assay is not described

[9] = target: T9, HLA-DRB1*07:01 (human); assay: HLA class II competition binding assay
T9 construct: MHC class II molecule; how it was prepared for the assay is not described

[10] = target: T10, HLA-DRB1*09:01 (human); assay: HLA class II competition binding assay
T10 construct: MHC class II molecule; how it was prepared for the assay is not described

[11] = target: T11, HLA-DRB1*12:01 (human); assay: HLA class II competition binding assay
T11 construct: MHC class II molecule; how it was prepared for the assay is not described

[12] = target: T12, HLA-DRB1*15:01 (human); assay: HLA class II competition binding assay
T12 construct: MHC class II molecule; how it was prepared for the assay is not described

[13] = target: T13, HLA-DRB3*01:01 (human); assay: HLA class II competition binding assay
T13 construct: MHC class II molecule; how it was prepared for the assay is not described

[14] = target: T14, HLA-DRB3*02:02 (human); assay: HLA class II competition binding assay
T14 construct: MHC class II molecule; how it was prepared for the assay is not described

[15] = target: T15, HLA-DRB5*01:01 (human); assay: HLA class II competition binding assay
T15 construct: MHC class II molecule; how it was prepared for the assay is not described

[16] = target: T16, HLA-DRB4*01:01 (human); assay: HLA class II competition binding assay
T16 construct: MHC class II molecule; how it was prepared for the assay is not described

[17] = target: T17, HLA-DRB1*04:01 (human); assay: HLA class II competition binding assay
T17 construct: MHC class II molecule; how it was prepared for the assay is not described

[18] = target: T18, HLA-DRB1*04:05 (human); assay: HLA class II competition binding assay
T18 construct: MHC class II molecule; how it was prepared for the assay is not described

IC50 [1] | IC50 [2] | Binder | also measured
0.576 µM | 0.951 µM | LSQLQTYMIQFDQYI [ApoB100 peptide 3563.0012, listing 1 of 2 here] | –
0.04 µM | 0.032 µM | FLHYIFMENAFELPT [ApoB100 peptide 3563.0006] | –
0.096 µM | 0.215 µM | FLIYITELLKKLQST [ApoB100 peptide 3563.0030] | –
9.07 µM | 2.1 µM | GKLYSILKIQSPLFT [ApoB100 peptide 3563.0016] | –
23.2 µM | 25 µM | IDLSIQNYHTFLIYI [ApoB100 peptide 3563.0029] | –
1.68 µM | 0.372 µM | DKRLAAYLMLMRSPS [ApoB100 peptide 3563.0004] | –
0.456 µM | – | GKIDFLNNYALFLSP [ApoB100 peptide 3563.0019] | –
0.128 µM | 0.089 µM | VGSKLIVAMSSWLQK (agrees with the claims) | –
0.0033 µM | 0.0021 µM | YKKLRTSSFALNLPT [ApoB100 peptide 3563.0022] | –
0.086 µM | 0.191 µM | LEVLNFDFQANAQLS (agrees with the claims) [ApoB100 peptide 3563.0017] | –

Further lines, the binder ahead of its results:

Binder | IC50 [1] | IC50 [2] | also measured
LIINWLQEALSSASL (agrees with the claims) | 16.3 µM | 6.19 µM | –
EGHLRFLKNIILPVY [ApoB100 peptide 3563.0021] | 0.061 µM | – | –
QEVFKAIQSLKTTEV [ApoB100 peptide 3563.0024] | 0.2 µM | 0.016 µM | –
PALLALLALPALLLL (label printed as 3563.001) [ApoB100 peptide 3563.001] | – | 14 µM | –
QELLDIANYLMEQIQ [ApoB100 peptide 3563.0003, listing 1 of 2 here] | 1.78 µM | 2.58 µM | –
SLFFSAQPFEITAST (also called p18) [ApoB100 peptide 3563.0018] | 0.011 µM | – | IC50 [3]: 1.48 µM; IC50 [4]: 0.126 µM; IC50 [5]: 0.895 µM
RGLKLATALSLSNKF [ApoB100 peptide 3563.0020] | – | – | IC50 [6]: 0.0011 µM
TLTAFGFASADLIEI [ApoB100 peptide 3563.0005, listing 1 of 2 here] | – | – | IC50 [7]: 0.06 µM; IC50 [8]: 16.4 µM; IC50 [9]: 0.033 µM; IC50 [10]: 0.028 µM; IC50 [11]: 27.2 µM; IC50 [6]: 0.0061 µM; IC50 [12]: 0.025 µM; IC50 [13]: 0.099 µM; IC50 [14]: 18.1 µM; IC50 [15]: 0.276 µM
IKHIYAISSAALSAS (also called p9; P9) [ApoB100 peptide 3563.0009] | – | – | IC50 [9]: 0.077 µM; IC50 [12]: 0.0011 µM; IC50 [14]: 0.0034 µM
TLTAFGFASADLIEI [ApoB100 peptide 3563.0005, listing 2 of 2 here] | – | 0.49 µM | –
LIINWLQEALSSASL | – | – | IC50 [6]: 0.012 µM; IC50 [16]: 0.012 µM
LSQLQTYMIQFDQYI [ApoB100 peptide 3563.0012, listing 2 of 2 here] | – | – | IC50 [7]: 0.157 µM; IC50 [8]: 20.5 µM; IC50 [17]: 0.019 µM; IC50 [18]: 0.069 µM; IC50 [9]: 0.014 µM; IC50 [10]: 0.425 µM; IC50 [11]: 3.36 µM; IC50 [6]: 0.035 µM; IC50 [12]: 0.0011 µM; IC50 [13]: 1.11 µM; IC50 [14]: 4.67 µM; IC50 [16]: 0.029 µM; IC50 [15]: 0.826 µM
HVKHFVINLIGDFEV [ApoB100 peptide 3563.0014] | 0.058 µM | 0.007 µM | –
VGSKLIVAMSSWLQK | – | – | IC50 [15]: 0.023 µM
QIHQYIMALREEYFD [ApoB100 peptide 3563.0027] | 0.08 µM | 0.817 µM | –
KIVSLIKNLLVALKD [ApoB100 peptide 3563.0028, listing 1 of 2 here] | – | – | IC50 [15]: 0.014 µM
ILFSYFQDLVITLPF [ApoB100 peptide 3563.0023] | – | – | IC50 [13]: 0.071 µM
QELLDIANYLMEQIQ [ApoB100 peptide 3563.0003, listing 2 of 2 here] | – | – | IC50 [13]: 0.088 µM
KIVSLIKNLLVALKD [ApoB100 peptide 3563.0028, listing 2 of 2 here] | 0.657 µM | 0.078 µM | –
VEFVTNMGIIIPDFA (agrees with the claims) [ApoB100 peptide 3563.0007] | 0.012 µM | – | –
